# B1: Azoarcus group I ribozyme (parent)
# chain: GUGCCUUGCGCCGGGAAACCACGCAAGGGAUGGUGUCAAAUUCGGCGAAACCUAAGCGCCCGCCCGGGCGUAUGGCAACGCCGAGCCAAGCUUCGGCGCCUGCGCCGAUGAAGGUGUAGAGACUAGACGGCACCCACCUAAGGCAAACGCUAUGGUGAAGGCAUAGUCCAGGGAGUGGCGAAAGUCACACAAACCGG
# Variants of: B1
# Assay: reverse-splicing fitness (ratio to wild type); higher = more active; in vitro selection; Mg2+ level not given
# Procedure, shortened: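 An in vitro group I ribozyme library with randomized positions was T7-transcribed and gel-purified. In triplicate, 10 pmol RNA in EPPS pH 7.5 was reacted with 50 pmoles of a 30-nt RNA substrate for 1 h at 37 °C across several added MgCl2 levels (1–48 mM), then stopped with EDTA. Products were reverse transcribed from a substrate-complementary primer, PCR-amplified and sequenced (HiSeq 4000). Fitness is a variant's read proportion after selection over that before, normalised to wild type.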
row,Variant,reverse-splicing fitness
1,A111U A120G C150A C169A U176C,0.0201
2,A111U A120G C150A C169A U176A,0.0237
3,A111U A120G C150A C169A U176G,0.00606
4,A111U A120U A145U C150A C169G,0.0047
5,A111U A120U A145U C150A C169A,0.00249
6,A111U A120U A145U C150A C169U,0.00692
7,A111U A120G C150A,0.02
8,A111U A120G C150U,0.0899
9,A111U A120G C150G,0.0154
10,A111U A120G A145G C169U,0.158
11,A111U A120G A145G C169G,0.222
12,A111U A120G A145G C169A,0.119
13,A111U A120G C169U U176A,0.0505
14,A111U A120G C169U U176C,0.055
15,A111U A120G C169U U176G,0.00807
16,A111U A120G A145G C169U U176G,0.00601
17,A111U A120G A145G C169U U176A,0.0467
18,A111U A120G A145G C169U U176C,0.0538
19,A111U A120U A145U C150G C169U,0.00751
20,A111U A120U A145U C150G C169G,0.00597
21,A111U A120U A145U C150G C169A,0.00326

row,Variant,reverse-splicing fitness
1,A111U A120U A145U C150G,0.0604
2,A111U A120U A145U C150A,0.0527
3,A111U A120U A145U C150U,0.405
4,A111U A120U,0.634
5,A111U A120U A145U C150A C169A U176C,0.00214
6,A111U A120U A145U C150A C169A U176A,0.00284
7,A111U A120U A145U C150A C169A U176G,0.00154
8,A111U A120U A145U C169G U176A,0.00482
9,A111U A120U A145U C169G U176G,0.00201
10,A111U A120U A145U C169G U176C,0.00666
11,A111U A120U A145U C169U U176G,0.00258
12,A111U A120U A145U C169U U176A,0.0087
13,A111U A120U A145U C169U U176C,0.0174
14,A111U A120G A145U C169A U176G,0.00427
15,A111U A120G A145U C169A U176C,0.0247
16,A111U A120G A145U C169A U176A,0.0201
17,A111U A120G A145U C169U U176A,0.0488
18,A111U A120G A145U C169U U176C,0.0495
19,A111U A120G A145U C169U U176G,0.00682
20,A111U A120U A145U C150U C169A,0.00404
21,A111U A120U A145U C150U C169U,0.0433

row,Variant,reverse-splicing fitness
1,A111U A120U A145U C150U C169G,0.0304
2,A111U A120G C150U C169G U176G,0.00503
3,A111U A120G C150U C169G U176C,0.0391
4,A111U A120G C150U C169G U176A,0.0314
5,A111U A120U A145C C150G C169U,0.00895
6,A111U A120U A145C C150G C169G,0.00697
7,A111U A120U A145C C150G C169A,0.0033
8,A111U A120U A145U C150A C169G U176A,0.00269
9,A111U A120U A145U C150A C169G U176G,0.00225
10,A111U A120U A145U C150A C169G U176C,0.00325
11,A111U A120U A145U C150U C169U U176G,0.00253
12,A111U A120U A145U C150U C169U U176A,0.00718
13,A111U A120U A145U C150U C169U U176C,0.00988
14,A111U A120U A145U C150G U176G,0.0043
15,A111U A120U A145U C150G U176A,0.0111
16,A111U A120U A145U C150G U176C,0.0208
17,A111U A120U A145C C150A C169A,0.00256
18,A111U A120U A145C C150A C169G,0.00394
19,A111U A120U A145C C150A C169U,0.00469
20,A111U A120G A145U C150U U176C,0.0388
21,A111U A120G A145U C150U U176G,0.0059

row,Variant,reverse-splicing fitness
1,A111U A120G A145U C150U U176A,0.0287
2,A111U A120G A145U C150U C169G,0.129
3,A111U A120G A145U C150U C169U,0.105
4,A111U A120G A145U C150U C169A,0.0657
5,A111U A120G A145U U176G,0.00581
6,A111U A120G A145U U176A,0.0396
7,A111U A120G A145U U176C,0.0483
8,A111U A120G C169U,0.155
9,A111U A120G C169G,0.218
10,A111U A120G C169A,0.116
11,A111U A120G A145U C150A C169A U176A,0.0123
12,A111U A120G A145U C150A C169A U176G,0.00499
13,A111U A120G A145U C150A C169A U176C,0.0102
14,A111U A120U A145C C150A U176C,0.00836
15,A111U A120U A145C C150A U176G,0.00552
16,A111U A120U A145C C150A U176A,0.012
17,A111U A120G C150G C169U,0.019
18,A111U A120G C150G C169A,0.0142
19,A111U A120G C150G C169G,0.018
20,A111U A120U A145C C150G C169U U176C,0.0029
